Values of other authors as cited in article PMC8525647.

Biological target: RAG2 (Homo sapiens) (UniProt P55895)
Sequence of UniProt P55895 (P55895 whole entry): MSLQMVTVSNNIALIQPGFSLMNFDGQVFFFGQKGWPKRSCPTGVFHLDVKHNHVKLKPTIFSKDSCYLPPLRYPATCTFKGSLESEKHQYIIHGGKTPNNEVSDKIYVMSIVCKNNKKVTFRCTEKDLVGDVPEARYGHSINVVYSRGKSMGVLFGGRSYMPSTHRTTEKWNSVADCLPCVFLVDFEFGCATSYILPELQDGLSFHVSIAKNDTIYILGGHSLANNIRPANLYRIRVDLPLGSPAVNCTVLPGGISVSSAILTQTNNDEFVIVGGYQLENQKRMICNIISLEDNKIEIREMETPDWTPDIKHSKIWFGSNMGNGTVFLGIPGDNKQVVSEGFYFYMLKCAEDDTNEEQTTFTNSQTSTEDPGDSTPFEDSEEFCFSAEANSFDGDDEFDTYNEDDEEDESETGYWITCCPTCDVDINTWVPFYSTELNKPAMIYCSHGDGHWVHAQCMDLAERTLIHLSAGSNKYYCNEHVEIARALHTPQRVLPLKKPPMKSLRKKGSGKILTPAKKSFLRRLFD

For RAG1 (from UniProt P15918), the Kd is given as 400 nM.
